B1: Mitogen-activated protein kinase kinase 9 (Arabidopsis thaliana (Mouse-ear cress)), Q9FX43 (parent)
chain: MALVRERRQLNLRLPLPPISDRRFSTSSSSATTTTVAGCNGISACDLEKLNVLGCGNGGIVYKVRHKTTSEIYALKTVNGDMDPIFTRQLMREMEILRRTDSPYVVKCHGIFEKPVVGEVSILMEYMDGGTLESLRGGVTEQKLAGFAKQILKGLSYLHALKIVHRDIKPANLLLNSKNEVKIADFGVSKILVRSLDSCNSYVGTCAYMSPERFDSESSGGSSDIYAGDIWSFGLMMLELLVGHFPLLPPGQRPDWATLMCAVCFGEPPRAPEGCSEEFRSFVECCLRKDSSKRWTAPQLLAHPFLREDL
B2: Mitogen-activated protein kinase kinase 9 (Arabidopsis thaliana (Mouse-ear cress)), Q9FX43 (parent)
chain: B1 chain
partner: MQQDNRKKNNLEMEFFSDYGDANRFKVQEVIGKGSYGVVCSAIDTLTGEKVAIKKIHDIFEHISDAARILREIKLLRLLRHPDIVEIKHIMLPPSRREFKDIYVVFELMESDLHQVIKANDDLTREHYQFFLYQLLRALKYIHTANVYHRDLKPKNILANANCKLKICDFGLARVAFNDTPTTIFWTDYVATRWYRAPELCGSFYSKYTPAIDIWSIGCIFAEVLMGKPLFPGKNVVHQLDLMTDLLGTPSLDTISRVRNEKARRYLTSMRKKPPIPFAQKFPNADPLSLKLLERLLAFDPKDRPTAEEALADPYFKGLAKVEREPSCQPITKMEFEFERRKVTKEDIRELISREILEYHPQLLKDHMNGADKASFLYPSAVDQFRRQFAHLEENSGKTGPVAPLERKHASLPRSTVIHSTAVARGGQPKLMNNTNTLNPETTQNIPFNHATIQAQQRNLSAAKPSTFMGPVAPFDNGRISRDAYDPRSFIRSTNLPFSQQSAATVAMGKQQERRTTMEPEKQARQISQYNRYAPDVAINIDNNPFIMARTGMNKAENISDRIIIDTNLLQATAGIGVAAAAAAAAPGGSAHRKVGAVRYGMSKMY

Variants of: B1
Settings: with mpk6_arath MPK6, Q39026
Sequence of mpk6_arath MPK6, Q39026 (Q39026 whole entry): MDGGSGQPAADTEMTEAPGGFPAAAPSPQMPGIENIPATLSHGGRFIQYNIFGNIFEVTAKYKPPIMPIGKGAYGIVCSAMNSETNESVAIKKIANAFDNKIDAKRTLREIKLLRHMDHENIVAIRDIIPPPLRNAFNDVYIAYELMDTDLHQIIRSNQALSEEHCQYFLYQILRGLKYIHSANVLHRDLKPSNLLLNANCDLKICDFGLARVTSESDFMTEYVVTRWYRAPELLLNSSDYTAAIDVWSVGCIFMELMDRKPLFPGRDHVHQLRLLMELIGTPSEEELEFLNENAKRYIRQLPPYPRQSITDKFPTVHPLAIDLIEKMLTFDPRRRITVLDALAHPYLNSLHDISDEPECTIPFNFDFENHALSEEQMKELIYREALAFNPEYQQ

Question: For MALVRERRQLNLRLPLPPISDRRFSTSSSSATTTTVAGCNGISACDLEKLNVLGCGNGGIVYKVRHKTTSEIYALKTVNGDMDPIFTRQLMREMEILRRTDSPYVVKCHGIFEKPVVGEVSILMEYMDGGTLESLRGGVTEQKLAGFAKQILKGLSYLHALKIVHRDIKPANLLLNSKNEVKIADFGVSKILVRSLDSCNEYVGTCAYMSPERFDSESSGGSSDIYAGDIWSFGLMMLELLVGHFPLLPPGQRPDWATLMCAVCFGEPPRAPEGCSEEFRSFVECCLRKDSSKRWTAPQLLAHPFLREDL [S201E], which “effect of a mutation on the interaction” value is on record?
Answer: Its value is “increasing interaction”.

Variants of: B1
Settings: with mpk10_arath MPK10, Q9M1Z5
Sequence of mpk10_arath MPK10, Q9M1Z5 (Q9M1Z5 whole entry): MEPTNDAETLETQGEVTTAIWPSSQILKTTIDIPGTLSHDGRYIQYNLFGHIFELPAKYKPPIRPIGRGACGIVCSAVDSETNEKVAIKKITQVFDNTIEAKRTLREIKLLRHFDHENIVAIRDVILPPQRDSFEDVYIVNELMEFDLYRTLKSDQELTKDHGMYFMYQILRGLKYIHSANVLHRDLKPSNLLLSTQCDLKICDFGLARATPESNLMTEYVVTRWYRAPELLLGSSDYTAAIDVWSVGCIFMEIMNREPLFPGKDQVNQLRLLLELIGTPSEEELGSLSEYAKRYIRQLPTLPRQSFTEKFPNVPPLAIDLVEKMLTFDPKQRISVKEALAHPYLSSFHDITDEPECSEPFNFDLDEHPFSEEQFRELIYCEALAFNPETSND

Question: Which “effect of a mutation on the interaction” value does the source give for MALVRERRQLNLRLPLPPISDRRFSTSSSSATTTTVAGCNGISACDLEKLNVLGCGNGGIVYKVRHKTTSEIYALKTVNGDMDPIFTRQLMREMEILRRTDSPYVVKCHGIFEKPVVGEVSILMEYMDGGTLESLRGGVTEQKLAGFAKQILKGLSYLHALKIVHRDIKPANLLLNSKNEVKIADFGVSKILVRSLDSCNEYVGTCAYMSPERFDSESSGGSSDIYAGDIWSFGLMMLELLVGHFPLLPPGQRPDWATLMCAVCFGEPPRAPEGCSEEFRSFVECCLRKDSSKRWTAPQLLAHPFLREDL [S201E] here?
Answer: Its value is “increasing interaction”.

Variants of: B2
Settings: with mpk20_arath MPK20, Q9SJG9

Question: Which “effect of a mutation on the interaction” value does the source give for MALVRERRQLNLRLPLPPISDRRFSTSSSSATTTTVAGCNGISACDLEKLNVLGCGNGGIVYKVRHKTTSEIYALKTVNGDMDPIFTRQLMREMEILRRTDSPYVVKCHGIFEKPVVGEVSILMEYMDGGTLESLRGGVTEQKLAGFAKQILKGLSYLHALKIVHRDIKPANLLLNSKNEVKIADFGVSKILVRSLDSCNEYVGTCAYMSPERFDSESSGGSSDIYAGDIWSFGLMMLELLVGHFPLLPPGQRPDWATLMCAVCFGEPPRAPEGCSEEFRSFVECCLRKDSSKRWTAPQLLAHPFLREDL [S201E] here?
Answer: The value was “increasing interaction”.

Question: How did the “effect of a mutation on the interaction” value turn out when MALVRERRQLNLRLPLPPISDRRFSTSSSSATTTTVAGCNGISACDLEKLNVLGCGNGGIVYKVRHKTTSEIYALKTVNGDMDPIFTRQLMREMEILRRTDSPYVVKCHGIFEKPVVGEVSILMEYMDGGTLESLRGGVTEQKLAGFAKQILKGLSYLHALKIVHRDIKPANLLLNSKNEVKIADFGVSKILVRELDSCNSYVGTCAYMSPERFDSESSGGSSDIYAGDIWSFGLMMLELLVGHFPLLPPGQRPDWATLMCAVCFGEPPRAPEGCSEEFRSFVECCLRKDSSKRWTAPQLLAHPFLREDL [S195E] was run?
Answer: The value was “increasing interaction”.
